{"source": "patent US20180273941A1", "about": "(UNIVERSITY OF MARYLAND BALTIMORE, published 2018)", "binders": {"B1": {"name": "ERM-binding phosphoprotein 50 (EBP50) (other, UniProt O14745 2-358, looked up)", "chain": "SADAAAGAPLPRLCCLEKGPNGYGFHLHGEKGKLGQYIRLVEPGSPAEKAGLLAGDRLVEVNGENVEKETHQQVVSRIRAALNAVRLLVVDPETDEQLQKLGVQVREELLRAQEAPGQAEPPAAAEVQGAGNENEPREADKSHPEQRELRPRLCTMKKGPSGYGFNLHSDKSKPGQFIRSVDPDSPAEASGLRAQDRIVEVNGVCMEGKQHGDVVSAIRAGGDETKLLVVDRETDEFFKKCRVIPSQEHLNGPLPVPFTNGEIQKENSREALAEAALESPRPALVRSASSDTSEELNSQDSPPKQDSTAPSSTSSSDPILDFNISLAMAKERAHQKRSSKRAPQMDWSKKNELFSNL", "notes": "Endogenous protein detected by Western blot (anti-EBP50, Clone 6/EBP50) in anti-p-ERM IP products"}}, "target": "T1, wild-type human moesin (Moesin-WT) (human, UniProt P26038 2-577, pulled down with the anti-p-ERM antibody, i.e. the form with phosphorylated C-terminal threonine (Thr558 for moesin, as the filing names the site in paragraph 193))", "T1 construct": "also called pCDNA3-Moesin WT; wild type moesin", "T1 sequence (P26038 2-577 limits assumed)": "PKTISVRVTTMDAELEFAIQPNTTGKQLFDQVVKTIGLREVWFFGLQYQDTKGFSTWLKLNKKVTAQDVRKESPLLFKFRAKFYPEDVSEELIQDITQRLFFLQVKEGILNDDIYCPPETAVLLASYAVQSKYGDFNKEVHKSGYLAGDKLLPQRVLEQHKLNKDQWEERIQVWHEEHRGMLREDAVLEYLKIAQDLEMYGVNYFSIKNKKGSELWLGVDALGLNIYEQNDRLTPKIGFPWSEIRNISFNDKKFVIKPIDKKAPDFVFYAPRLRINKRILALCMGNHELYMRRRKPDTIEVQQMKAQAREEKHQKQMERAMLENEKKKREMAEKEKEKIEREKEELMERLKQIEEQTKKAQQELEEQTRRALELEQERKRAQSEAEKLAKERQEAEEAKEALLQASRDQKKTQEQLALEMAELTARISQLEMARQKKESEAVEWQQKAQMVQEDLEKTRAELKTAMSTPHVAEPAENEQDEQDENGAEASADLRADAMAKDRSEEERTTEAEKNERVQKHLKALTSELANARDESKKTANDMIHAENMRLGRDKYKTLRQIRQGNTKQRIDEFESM", "assay": "anti-p-ERM IP and Western blot, transfected H522 cells", "description": "Both plasmids produce high levels of moesin proteins in the transfected cells (FIG. 5d).\nBecause p-ERM functions primarily through binding to F-actin and EBP50 (ERM-binding phosphoprotein 50) through their C-ERMAD and TERM domain (Fouassier, L., Yun, C. C., Fitz, J. G.& Doctor, R. B. Evidence for ezrin-radixin-moesin-binding phosphoprotein 50 (EBP50) self-association through PDZ-PDZ interactions. J Biol Chem. 275, 25039-25045 (2000); Turunen, O., Wahlström, T. & Vaheri, A. Ezrin has a COOH-terminal actin-binding site that is conserved in the ezrin protein family. J Cell Biol. 126, 1445-1453 (1994); Bretscher, A. et al. ERM-Merlin and EBP50 protein families in plasma membrane organization and function."}
{"binder": "B1", "values": [{"measurement": "binding result", "value": "binds"}]}
